The values that follow come from patent US20190330367A1.

Test [1] addresses human PSMA, full-length (endogenous on LNCaP and CW22Rv1 cells, or stably overexpressed in HEK293T/17 cells) (human) (UniProt Q04609). As to the kind of experiment: flow cytometry on live LNCaP cells, mAb 5 µg/mL, Alexa Fluor 647 secondary antibody; number printed beside the open (LNCaP) histogram. On the technique in general: A flow cytometer gives signals particle by particle.
For test [2], the target named is rhPSMA, extracellular part of human PSMA (residues 44-750) (human) (UniProt Q04609). As to the kind of experiment: SPR (BIAcore 2000), mAb captured by anti-mouse IgG, rhPSMA as analyte, Langmuir 1:1 fit. (In general: Surface plasmon resonance follows binding to a sensor surface in real time, without labels.)
Test [3] has as its target Avi-PSMA, extracellular part of human PSMA comprising an N-terminal Avi-tag (human) (UniProt Q04609). As to the kind of experiment: direct ELISA on biotinylated Avi-PSMA held on streptavidin-coated plates, HRP secondary antibody, chemiluminescence, normalised binding (%). For orientation: In an ELISA, binding on a coated surface is turned into a signal by an enzyme label.

Test [4] has the same target. As to the kind of experiment: native ELISA, biotinylated Avi-PSMA on streptavidin plate, mAb titrated.
Test [5] deals with human PSMA, full-length (endogenous on LNCaP and CW22Rv1 cells, or stably overexpressed in HEK293T/17 cells) (human) (UniProt Q04609). As to the kind of experiment: flow cytometry (summary sentence; differs from […] in Table 2).
For test [6] the target is unchanged. As to the kind of experiment: flow cytometry titration on live LNCaP cells.
Test [7] shares this target. As to the kind of experiment: flow cytometry titration on live LNCaP cells, Alexa Fluor 647 secondary antibody, normalised binding (%).

As usually defined, the pKd is −log10 of the Kd, conventionally taken in molar units. Higher therefore signals a low Kd. As usually defined, the EC50 (read off the curve) is the concentration at which the effect is half-maximal. The term koff denotes the rate constant with which the complex falls apart. Lower therefore signals a long-lived complex. As a reminder, the kon is the rate constant with which the complex forms.

pKd: −log10 of the molar value.

The substance 5D3 mAb (antibody) yielded a median fluorescence (Alexa Fluor 647) in test [1] of 10700. Also, the results for the pKd in test [2], in test [4] and in test [5] were 8.97, 9.85 and 8.92, respectively. The EC50 (read off the curve) in test [3] is 0.1 to 0.2 nM.

The substance J591 mAb (antibody) yielded a median fluorescence (Alexa Fluor 647) in test [1] of 10600. Also, the pKd in test [2] is 8.92; in test [4], 8.95; in test [6], 7.82. Also, the koff in test [2] worked out at 0.000123 s⁻¹. The substance also had a kon in test [2] of 102000 M⁻¹ s⁻¹. In addition, the EC50 (read off the curve) worked out at 0.9 nM in test [3] and 10 nM in test [7].
